{"source": "patent US20260217861", "test_system": "mouse GPV with point mutation R476A in the thrombin cleavage site (Gp5^dThr platelets)", "sequence (chain, as listed by the source R476A)": "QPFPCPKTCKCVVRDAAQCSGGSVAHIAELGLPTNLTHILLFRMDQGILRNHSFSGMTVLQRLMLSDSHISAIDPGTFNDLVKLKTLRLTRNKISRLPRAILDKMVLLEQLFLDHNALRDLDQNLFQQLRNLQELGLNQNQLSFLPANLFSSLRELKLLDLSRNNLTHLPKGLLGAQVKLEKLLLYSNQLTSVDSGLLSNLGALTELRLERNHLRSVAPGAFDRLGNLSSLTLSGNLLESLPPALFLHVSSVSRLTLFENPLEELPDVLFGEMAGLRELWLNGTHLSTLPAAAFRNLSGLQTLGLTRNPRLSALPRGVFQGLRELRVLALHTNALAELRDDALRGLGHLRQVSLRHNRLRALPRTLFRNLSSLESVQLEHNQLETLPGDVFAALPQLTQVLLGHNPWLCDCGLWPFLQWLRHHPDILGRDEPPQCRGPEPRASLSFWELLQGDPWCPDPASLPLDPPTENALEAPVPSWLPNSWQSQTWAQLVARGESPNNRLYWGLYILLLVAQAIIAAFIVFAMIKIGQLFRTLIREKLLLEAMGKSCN", "data": [{"substance": "human thrombin (Roche, Sigma-Aldrich #10602400001)", "values": [{"measurement": "cleavage of GPV by thrombin (sGPV ELISA, flow cytometry)", "result": "GPV was completely resistant to cleavage by thrombin"}]}]}
